Test results: paper PMC12489471, “A multi-dentate, cooperative interaction between endo- and exo-ribonucleases within the bacterial RNA degradosome” (Nucleic Acids Research, 2025)
“Also recorded” adds a separate entry of the source.

What was measured:
[1] = SEC-MALLS molar mass of PNPase and PNPase/RNase E complexes; format: physicochemical
Experimental: Estimation of molar masses of PNPase and the various PNPase/RNase E complexes was carried out by size-exclusion chromatography with multi-angle laser light scattering (SEC-MALLS). Proteins (100 μl at ∼1 mg/ml concentration) were loaded onto a Superdex 200 10/300 Increase GL SEC column (GE Healthcare) at 0.5 ml/min using an AKTA Purifier FPLC system ([…]). Chromatograms were acquired using UNICORN software (GE Healthcare) at 280 nm. The eluent from the S200 column was analysed with an online DAWN HELEOS II MALLS instrument with eight detectors (Wyatt Technology), followed by an Optilab T-rEX differential refractometer (Wyatt Technology) at 25°C. Data collection and analysis were performed using ASTRA 6 software (Wyatt Technology). Eluted peaks from SEC column were evaluated by Zimm Plot, using a dn/dc value of 0.1850 ml/g. Bovine serum albumin was used as a standard to confirm the system performance (Supplementary Table S1).

[2] = target: T1, PNPase (Escherichia coli, UniProt P05055); format: binding, E. coli; settings: SPR; for Kd (dissociation rate constant, point mutants and wildtype): 25°C, immobilized PNPase C-His, HEPES pH 7.2, 0, 12.5, 25 and 50 nM (point mutants), contact 120 s, dissociation 120 s, duplicates
T1 construct: made in house; host or cells: E. coli Evo21(DE3)
T1 sequence (P05055 whole entry, looked up): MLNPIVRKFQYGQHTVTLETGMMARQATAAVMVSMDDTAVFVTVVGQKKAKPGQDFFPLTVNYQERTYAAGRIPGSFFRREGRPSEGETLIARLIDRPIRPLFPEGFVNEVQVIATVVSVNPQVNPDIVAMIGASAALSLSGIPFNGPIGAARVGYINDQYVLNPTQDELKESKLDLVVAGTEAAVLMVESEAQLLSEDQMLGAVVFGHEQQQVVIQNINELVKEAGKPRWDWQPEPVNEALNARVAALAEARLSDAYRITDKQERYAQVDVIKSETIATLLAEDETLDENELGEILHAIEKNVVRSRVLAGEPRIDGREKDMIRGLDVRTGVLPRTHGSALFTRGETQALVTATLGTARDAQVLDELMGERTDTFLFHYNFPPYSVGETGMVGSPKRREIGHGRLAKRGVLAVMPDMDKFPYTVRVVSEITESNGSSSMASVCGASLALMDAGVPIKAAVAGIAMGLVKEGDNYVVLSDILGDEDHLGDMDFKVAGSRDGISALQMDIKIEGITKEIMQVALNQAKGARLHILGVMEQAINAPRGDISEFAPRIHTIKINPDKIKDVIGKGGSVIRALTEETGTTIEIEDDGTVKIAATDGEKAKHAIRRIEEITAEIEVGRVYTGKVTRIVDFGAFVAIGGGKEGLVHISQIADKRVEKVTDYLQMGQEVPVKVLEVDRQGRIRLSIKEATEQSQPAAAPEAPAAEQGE
Source text: Briefly, at the N-terminal of the construct, there is an Hisx6 affinity tag that will be used for affinity purification. Following the Hisx6 tag there is an maltose-binding protein (MBP) tag with a TEV cleavage site to maintain solubility of the peptides. Following the MBP tag the gene encoding the peptide is inserted, and is then followed by intein, a self-cleavable tag, followed by a choline-binding domain, which can be used for an extra step of affinity purification. […] After expression, cells were harvested, resuspended in Lysis Buffer 2 (20 mM Tris–HCl, pH 8.0, 80 mM KCl, 300 mM NaCl, 20 mM Imidazole, 0.5 mM TCEP), and lysed with a cell disruptor (Emulsiflex, Avestin). […] After subsequent rounds of washing with Ni Equilibration Buffer supplemented with, respectively, 0.1% Triton-X, 1 M NaCl, and a final wash in Ni Equilibration Buffer, samples were eluted with Ni Elution Buffer (20 mM Tris–HCl, pH 8.0, 300 mM NaCl, 300 mM imidazole, 0.5 mM TCEP). Enriched fractions were then supplemented with 100 mM β-mercaptoethanol to catalyse intein self-cleavage overnight at room temperature. Treated samples were filtered and loaded on an amylose gravity flow column, equilibrated with Amy Equilibration Buffer (20 mM Tris–HCl, pH 8.0, 20 mM NaCl, 20 mM imidazole, 2 mM β-mercaptoethanol) and after washing, His-tagged TEV protease was applied to the resin and incubated at 4°C for 2 h.
PNPase carrying a C-terminal Hisx6 tag was expressed from pExp-cis-Ec_PNP-CHis vector in E. coli Evo21(DE3) cells, induced with 0.4 mM IPTG, at 18°C overnight. After expression, cells were harvested and resuspended in Lysis Buffer 2 (20 mM Tris–HCl, pH 8.0, 80 mM KCl, 300 mM NaCl, 20 mM imidazole, 0.5 mM TCEP), and lysed with a cell disruptor (Emulsiflex, Avestin). […] After subsequent rounds of washing with equilibration buffer supplemented with 0.1% Triton-X, or 1 M NaCl, the sample was eluted with Ni PNPCHis Elution Buffer (20 mM NaH2PO4, pH 8.0, 300 mM NaCl, 300 mM KCl, 5 mM MgCl2, 300 mM imidazole, pH 7.5, 10 mM β-mercaptoethanol). […] Fractions containing PNPase were run through a HiPrep™ 26/10 Desalting Column (GE Healthcare) and buffer exchanged to Q PNPCHis A (20 mM NaH2PO4, pH 8.0, 30 mM NaCl, 10% glycerol, 0.5 mM TCEP).
Interaction measurements were made using a Biacore T200 instrument (GE) at 25°C. PNPase with a 6xHisTag at the CTD was immobilized on a Series S Sensor Chip NTA (Cytiva) to provide a signal of 5 response units (RU). […] For the SPR analysis of the point mutants, binding to PNPase was measured at four different concentrations (0, 12.5, 25, and 50 nM). All concentrations were run in duplicates. The contact time was 60 s, while the dissociation time was 120 s, at a […] flow rate. […] The chip surface was regenerated with 350 mM EDTA in water, following manufacturer's instructions. Data were processed using the manufacturer’s BIAevaluation software.

[3] = Superdex 200, 25°C, buffer A (with 0.01% w/v b-DDM)
[4] = Superdex 200, 25°C, buffer A: 50 mM Tris pH 7.5, 100 mM NaCl, 100 mM KCl, 0.01% w/v b-DDM, 1 mM TCEP
[5] = buffer A (with 0.01% w/v b-DDM)
[6] = buffer A, expected: PNPase trimer, or trimer:RNase E 1:1 ratio
[7] = Superdex 200, 25°C, buffer B: A w/o bDDM
[8] = buffer B, expected: trimer:RNase E 1:1 ratio for complexes
[9] = buffer B: A w/o bDDM, second line in buffer B
[10] = mutant vs wildtype RNase E 960–1061

## E. coli PNPase: polynucleotide phosphorylase, trimer
[1]; [3]
  Mw weight-averaged solute molar mass: 204,900 Da
[1]; [4]
  Mn number-averaged solute molar mass: 204,600 Da
[1]; [5]
  Polydispersity (Mn/Mw): 1.001
[1]; [6]
  Difference Mn from expected mass: 11.5%

## Bovine serum albumin: standard to confirm the system performance [reference compound]
[1]; [3]
  Mw weight-averaged solute molar mass: 63,270 Da
[1]; [4]
  Mn number-averaged solute molar mass: 63,250 Da
[1]; [7]
  Mn number-averaged solute molar mass: 63,300 Da
  Mw weight-averaged solute molar mass: 63,350 Da
[1]; [5]
  Polydispersity (Mn/Mw): 1.000
[1]; [6]
  Difference Mn from expected mass: 4.8%
[1]; [8]
  Difference Mn from expected mass: 4.7%
[1]; buffer B, second line in buffer B
  Difference Mn from expected mass: 3.8%
[1]; buffer B: A w/o bDDM
  Polydispersity (Mn/Mw): 1.001
[1]; [9]
  Mn number-averaged solute molar mass: 63,900 Da
  Mw weight-averaged solute molar mass: 64,200 Da
  Polydispersity (Mn/Mw): 1.005

B1: E. coli PNPase core, lacking S1 and KH domains: truncated PNPase lacking the KH and S1 domains (protein)
chain: MLNPIVRKFQYGQHTVTLETGMMARQATAAVMVSMDDTAVFVTVVGQKKAKPGQDFFPLTVNYQERTYAAGRIPGSFFRREGRPSEGETLIARLIDRPIRPLFPEGFVNEVQVIATVVSVNPQVNPDIVAMIGASAALSLSGIPFNGPIGAARVGYINDQYVLNPTQDELKESKLDLVVAGTEAAVLMVESEAQLLSEDQMLGAVVFGHEQQQVVIQNINELVKEAGKPRWDWQPEPVNEALNARVAALAEARLSDAYRITDKQERYAQVDVIKSETIATLLAEDETLDENELGEILHAIEKNVVRSRVLAGEPRIDGREKDMIRGLDVRTGVLPRTHGSALFTRGETQALVTATLGTARDAQVLDELMGERTDTFLFHYNFPPYSVGETGMVGSPKRREIGHGRLAKRGVLAVMPDMDKFPYTVRVVSEITESNGSSSMASVCGASLALMDAGVPIKAAVAGIAMGLVKEGDNYVVLSDILGDEDHLGDMDFKVAGSRDGISALQMDIKIEGITKEIMQVALNQAKGARLHILGVMEQAINAPRGDISEFA
modifications: left off: Mycobacterium xenopi GyrA intein, C-terminal, cleaved | His8, C-terminal, cleaved
[1]; [3]
  Mw weight-averaged solute molar mass: 163,600 Da
[1]; [4]
  Mn number-averaged solute molar mass: 163,300 Da
[1]; [5]
  Polydispersity (Mn/Mw): 1.002
[1]; [6]
  Difference Mn from expected mass: 8.7%

B2: RNase E 960 – 1061 R1012A: RNase E peptide with point mutation of Arg1012 to alanine (peptide)
chain: VVETAEVVVAEPEVVAQPAAPVVAEVAAEVETVAAVEPEVTVEHNHATAPMTAAPAPEYVPEAPRHSDWQRPTFAFEGKGAAGGHTATHHASAAPARPQPVE
modifications: left off: His6, N-terminal, cleaved | MBP, N-terminal, cleaved | intein, C-terminal, cleaved | choline-binding domain, C-terminal, cleaved
notes: RNase E peptide with point mutation of Arg1012 to alanine
[2]
  Kd (dissociation rate constant, point mutants and wildtype): 0.052 s⁻¹
[2]; [10]
  association rate compared to the wildtype, in words: does not significantly affect the KD of the interaction and the association rate
  dissociation rate (off-rate) compared to the wildtype, in words: faster off-rate; also recorded: faster dissociation rate
  effect on KD / binding compared to the wildtype, in words: does not significantly affect the KD of the interaction

B3: RNase E 960 – 1061 R1056A: RNase E peptide with point mutation of Arg1056 to alanine (peptide)
chain: VVETAEVVVAEPEVVAQPAAPVVAEVAAEVETVAAVEPEVTVEHNHATAPMTRAPAPEYVPEAPRHSDWQRPTFAFEGKGAAGGHTATHHASAAPAAPQPVE
modifications: left off: His6, N-terminal, cleaved | MBP, N-terminal, cleaved | intein, C-terminal, cleaved | choline-binding domain, C-terminal, cleaved
notes: RNase E peptide with point mutation of Arg1056 to alanine
[2]
  Kd (dissociation rate constant, point mutants and wildtype): 0.045 s⁻¹
[2]; [10]
  KD change compared to the wildtype: roughly 13 fold
  association rate compared to the wildtype, in words: ten-fold slower
  dissociation rate (off-rate) compared to the wildtype, in words: faster off-rate

B4: RNase E 583-1061, avi-tagged: avi-tagged RNase E 583-1061 (protein)
chain: SGGEETKPTEQPAPKAEAKPERQQDRRKPRQNNRRDRNERRDTRSERTEGSDNREENRRNRRQAQQQTAETRESRQQAEVTEKARTADEQQAPRRERSRRRNDDKRQAQQEAKALNVEEQSVQETEQEERVRPVQPRRKQRQLNQKVRYEQSVAEEAVVAPVVEETVAAEPIVQEAPAPRTELVKVPLPVVAQTAPEQQEENNADNRDNGGMPRRSRRSPRHLRVSGQRRRRYRDERYPTQSPMPLTVACASPELASGKVWIRYPIVRPQDVQVEEQREQEEVHVQPMVTEVPVAAAIEPVVSAPVVEEVAGVVEAPVQVAEPQPEVVETTHPEVIAAAVTEQPQVITESDVAVAQEVAEQAEPVVEPQEETADIEEVVETAEVVVAEPEVVAQPAAPVVAEVAAEVETVAAVEPEVTVEHNHATAPMTRAPAPEYVPEAPRHSDWQRPTFAFEGKGAAGGHTATHHASAAPARPQPVE
modifications: left off: Avi tag, end not stated, kept
[1]; [7]
  Mn number-averaged solute molar mass: 52,930 Da
  Mw weight-averaged solute molar mass: 53,310 Da
[1]; [8]
  Difference Mn from expected mass: 4.7%
[1]; buffer B: A w/o bDDM
  Polydispersity (Mn/Mw): 1.007
